Source: the supplement of paper PMC7125110
± gives the standard error. For part of these data: This sample holds only a part of the variants without activity.

B1: glmS ribozyme (parent)
chain: AUAAAAGCGCCAGAACUACAGAAAUGUAGUUGACGAGGAGGAGGUUUAUCGAAUUUUCGGCGGAUGCCUCCAAA

How the values were obtained:
Conditions in all cases: with glucosamine-6-phosphate
glucosamine-6-phosphate [1] = variants of: B1; test: kcat; higher = faster cleavage; RNA array
Summary of the method: (§1)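 On sequenced MiSeq chips, barcoded ribozyme variants were made in situ by E. coli RNA polymerase and followed at 37 °C through a hybridised Cy3 probe. Glucosamine-6-phosphate was flowed in at 40 μM to 10 mM in HEPES/KCl/Mg(OAc)2 buffer. Exponential fits to normalised per-tile medians gave kobs, and weighted Michaelis–Menten fits gave kcat and KM.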

glucosamine-6-phosphate [2] = variants of: B1; test: self-cleavage kobs at 40 uM GlcN6P; higher = faster cleavage; RNA array
Summary of the method: as §1

glucosamine-6-phosphate [3] = variants of: B1; test: KM; higher = weaker cofactor use; RNA array
Summary of the method: as §1

glucosamine-6-phosphate [4] = variants of: B1; test: self-cleavage kobs at 160 uM GlcN6P; higher = faster cleavage; RNA array
Summary of the method: as §1

glucosamine-6-phosphate [5] = variants of: B1; test: self-cleavage kobs at 640 uM GlcN6P; higher = faster cleavage; RNA array
Summary of the method: as §1

glucosamine-6-phosphate [6] = variants of: B1; test: self-cleavage kobs at 10000 uM GlcN6P; higher = faster cleavage; RNA array
Summary of the method: as §1

glucosamine-6-phosphate [7] = variants of: B1; test: self-cleavage kobs at 2500 uM GlcN6P; higher = faster cleavage; RNA array
Summary of the method: as §1

| Variant | kcat (glucosamine-6-phosphate [1]) [s⁻¹] | self-cleavage kobs at 40 uM GlcN6P (glucosamine-6-phosphate [2]) [s⁻¹] | KM (glucosamine-6-phosphate [3]) [µM] | self-cleavage kobs at 160 uM GlcN6P (glucosamine-6-phosphate [4]) [s⁻¹] | self-cleavage kobs at 640 uM GlcN6P (glucosamine-6-phosphate [5]) [s⁻¹] | self-cleavage kobs at 10000 uM GlcN6P (glucosamine-6-phosphate [6]) [s⁻¹] | self-cleavage kobs at 2500 uM GlcN6P (glucosamine-6-phosphate [7]) [s⁻¹] |
| --- | --- | --- | --- | --- | --- | --- | --- |
| G43U U56A | 1.76e-05 ± 3.4e-06 | < 1e-05 |  |  |  |  |  |
| A42U A52U | 3e-05 ± 6.8e-07 |  | 2350 ± 200 | < 1e-05 | < 1e-05 | 2.43e-05 ± 9.1e-06 |  |
| G41U U55G | 0.000303 ± 5.3e-05 | 3.39e-05 ± 1.1e-05 |  | 9.74e-05 ± 2.6e-05 | 0.000276 ± 3.9e-05 | 0.000252 ± 3.2e-05 | 0.000419 ± 7.2e-05 |
| G44A U54G | 0.000522 ± 0.00012 |  |  |  | 0.000231 ± 7.3e-05 | 0.000438 ± 6.2e-05 | 0.000634 ± 0.00013 |
| A42G G66U | 0.00257 ± 0.00027 | 5.91e-05 ± 9e-06 | 1900 ± 310 | 0.000171 ± 2.6e-05 | 0.000688 ± 8.4e-05 | 0.0021 ± 0.00021 | 0.00166 ± 0.00027 |
| G44A C67A | 0.0103 ± 0.0048 | 0.00024 ± 4e-05 |  | 0.000422 ± 0.00011 | 0.00141 ± 0.00018 | 0.00737 ± 0.0013 | 0.00541 ± 0.00076 |
| A42G G44A | 0.00011 ± 2.6e-05 |  |  |  |  | 8.49e-05 ± 1.1e-05 | 7.65e-05 ± 1.8e-05 |
| G44C A53U | 7.99e-05 ± 9.3e-07 |  | 1170 ± 57 |  |  | 7.13e-05 ± 1.1e-05 | 5.52e-05 ± 1.4e-05 |
| G44A C71U | 9.17e-05 ± 8.5e-06 |  | 1020 ± 370 |  | 2.9e-05 ± 1e-05 | 7.95e-05 ± 9.2e-06 | 7.37e-05 ± 9.8e-06 |
| G40U G66U | 6.98e-05 ± 5.6e-06 |  | 2030 ± 510 |  | 2.07e-05 ± 8.1e-06 | 5.9e-05 ± 7.2e-06 | 3.54e-05 ± 7.3e-06 |
| G40U G66A | 0.00396 ± 0.00044 | 8.13e-05 ± 1.2e-05 | 2220 ± 390 | 0.000207 ± 5.2e-05 | 0.000901 ± 0.00016 | 0.00326 ± 0.00035 | 0.00208 ± 0.0004 |
| G40C U47A | 0.00182 ± 0.0003 | 7.98e-05 ± 1.1e-05 | 1170 ± 310 | 0.000192 ± 3.4e-05 | 0.000511 ± 0.0001 | 0.0017 ± 0.00019 | 0.00128 ± 0.00024 |
| G41C C70A | 0.000866 ± 0.00015 | 5.77e-05 ± 8.1e-06 | 762 ± 230 | 0.000116 ± 2.1e-05 | 0.000392 ± 6.6e-05 | 0.000775 ± 9.6e-05 | 0.00078 ± 0.00012 |
| G40C U46A | 0.000264 ± 7.1e-05 |  |  |  | 7.92e-05 ± 1.6e-05 | 0.000207 ± 3.1e-05 | 0.000286 ± 4.6e-05 |
